Laboratory results taken from publication PMC8429728 (Nature Communications, 2021).

Biological target: T1, M1-linked tetra-ubiquitin (UniProt P0CG48 1-76; P0CG48 1-76; P0CG48 1-76; P0CG48 1-76, M1-linked)
T1 construct: ubiquitin, first of four head-to-tail repeats; ubiquitin, second repeat; ubiquitin, third repeat; ubiquitin, fourth repeat; also called M1-linked chains
Experiment: pull-down; GST fusion held on glutathione agarose, incubated with 0.5 μg of an individual tetra-ubiquitin chain, 2 h at 4 °C; 150 mM NaCl, 50 mM Tris pH 7.5, 0.1% IGEPAL, 5 mM DTT, 0.25 mg/mL BSA; immunoblotted for GST and ubiquitin
Conditions: both partners purified

- binding result: binds
B1: GST-TNK1-UBA (domain or fragment, human, UniProt Q13470 585-666, looked up)
chain: LLSDPELQRKIMEVELSVHGVTHQECQTALGATGGDVVSAIRNLKVDQLFHLSSRSRADCWRILEHYQWDLSAASRYVLARP
notes: TNK1, human, amino acid 585 to 666 (UBA domain), in pGEX-6P-1; also called GST-tagged recombinant TNK1 UBA; source: E. coli BL21; held on glutathione agarose and washed (pull-down); lysate loaded on anti-GST biosensors (BLI); not shown: GST, N-terminal, kept
